Source: patent US20160272693A1 (ZEALAND PHARMA A S, published 2016)
Like-named read-outs stand apart in the source and are kept apart here. *1 amine or outer side, *2 acyl side, *3 side chain or, on linkers, in order; H or OH if unused. Bridges are numbered along the chain shown (N, C = ends). [ ]: non-standard residue; d: D form. The star is where a group is joined. C20 diacid = O=C(O)CCCCCCCCCCCCCCCCCCC(=O)*; γGlu = O=C(O)[C@H](CCC(=O)[*:2])N[*:1]; Hyp = O=C(O)[C@@H]1C[C@@H](O)CN1; NMeI = CC[C@H](C)[C@H](NC)C(=O)O; Aad = N[C@@H](CCCC(=O)O)C(=O)O; Sar = CNCC(=O)O

T1: human amylin receptor 3 (hAMYR3), hCTR2 co-expressed with human receptor activity modifying protein 3 (hRAMP3) (human, UniProt P30988 25-474; O60896 24-148)
T1 sequence (looked up) 1: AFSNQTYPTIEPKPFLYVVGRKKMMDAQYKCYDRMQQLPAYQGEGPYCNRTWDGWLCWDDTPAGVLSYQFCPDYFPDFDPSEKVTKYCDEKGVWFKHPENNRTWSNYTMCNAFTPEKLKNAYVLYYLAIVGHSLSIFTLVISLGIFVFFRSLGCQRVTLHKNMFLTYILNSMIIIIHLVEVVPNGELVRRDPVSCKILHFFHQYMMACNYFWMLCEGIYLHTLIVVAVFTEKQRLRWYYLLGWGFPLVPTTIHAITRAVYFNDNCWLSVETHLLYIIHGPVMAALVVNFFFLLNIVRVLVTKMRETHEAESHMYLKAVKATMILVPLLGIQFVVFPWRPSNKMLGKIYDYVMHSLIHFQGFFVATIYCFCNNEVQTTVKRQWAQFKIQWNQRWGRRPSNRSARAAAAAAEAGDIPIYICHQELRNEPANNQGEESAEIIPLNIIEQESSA
T1 sequence (looked up) 2: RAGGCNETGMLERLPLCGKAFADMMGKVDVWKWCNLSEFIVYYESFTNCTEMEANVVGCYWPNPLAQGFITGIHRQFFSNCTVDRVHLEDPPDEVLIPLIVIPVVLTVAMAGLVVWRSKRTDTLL


Legend:
[1] = target: T1, human amylin receptor 3 (hAMYR3), hCTR2 …; experiment: cell-based or functional assay
[2] = target: T1, human amylin receptor 3 (hAMYR3), hCTR2 …; experiment: cell-based or functional assay; remark: listed apart in the source

Binder	hAMYR3 EC50 (nM); cAMP induction [1] [nM]	hAMYR3 EC50 (nM); cAMP induction [2] [nM]
{C20 diacid}-[γGlu]RCGTATCATERLA[Aad]FLQRSSF[Sar]A[NMeI]LSSTEVGSNT[Hyp]-NH2 (disulfide 3-8; SMILES CC[C@H](C)[C@@H](C(=O)N[C@@H](CC(C)C)C(=O)N[C@@H](CO)C(=O)N[C@@H](CO)C(=O)N[C@H](C(=O)N[C@@H](CCC(=O)O)C(=O)N[C@H](C(=O)NCC(=O)N[C@@H](CO)C(=O)N[C@@H](CC(N)=O)C(=O)N[C@H](C(=O)N1C[C@H](O)C[C@H]1C(N)=O)[C@@H](C)O)C(C)C)[C@@H](C)O)N(C)C(=O)[C@H](C)NC(=O)CN(C)C(=O)[C@H](Cc1ccccc1)NC(=O)[C@H](CO)NC(=O)[C@H](CO)NC(=O)[C@H](CCCNC(=N)N)NC(=O)[C@H](CCC(N)=O)NC(=O)[C@H](CC(C)C)NC(=O)[C@H](Cc1ccccc1)NC(=O)[C@H](CCCC(=O)O)NC(=O)[C@H](C)NC(=O)[C@H](CC(C)C)NC(=O)[C@H](CCCNC(=N)N)NC(=O)[C@H](CCC(=O)O)NC(=O)[C@@H](NC(=O)[C@H](C)NC(=O)[C@@H]1CSSC[C@H](NC(=O)[C@H](CCCNC(=N)N)NC(=O)CC[C@H](NC(=O)CCCCCCCCCCCCCCCCCCC(=O)O)C(=O)O)C(=O)NCC(=O)N[C@@H]([C@@H](C)O)C(=O)N[C@@H](C)C(=O)N[C@@H]([C@@H](C)O)C(=O)N1)[C@@H](C)O) [[19CD]-isoGlu-R-C( )-GTAT-C( )-ATERLA-Aad-FLQRSSF-Gly(Me)-A-Ile(Me)-LSSTEVGSNT-Hyp-NH2 (Compd. 55)]	0.08	0.08
{C20 diacid-γGlu}-RCQTATCATERLAHFLQRSSF[Sar]A[NMeI]LSSTEVGSNT[Hyp]-NH2 (disulfide 2-7; SMILES CC[C@H](C)[C@@H](C(=O)N[C@@H](CC(C)C)C(=O)N[C@@H](CO)C(=O)N[C@@H](CO)C(=O)N[C@H](C(=O)N[C@@H](CCC(=O)O)C(=O)N[C@H](C(=O)NCC(=O)N[C@@H](CO)C(=O)N[C@@H](CC(N)=O)C(=O)N[C@H](C(=O)N1C[C@H](O)C[C@H]1C(N)=O)[C@@H](C)O)C(C)C)[C@@H](C)O)N(C)C(=O)[C@H](C)NC(=O)CN(C)C(=O)[C@H](Cc1ccccc1)NC(=O)[C@H](CO)NC(=O)[C@H](CO)NC(=O)[C@H](CCCNC(=N)N)NC(=O)[C@H](CCC(N)=O)NC(=O)[C@H](CC(C)C)NC(=O)[C@H](Cc1ccccc1)NC(=O)[C@H](Cc1c[nH]cn1)NC(=O)[C@H](C)NC(=O)[C@H](CC(C)C)NC(=O)[C@H](CCCNC(=N)N)NC(=O)[C@H](CCC(=O)O)NC(=O)[C@@H](NC(=O)[C@H](C)NC(=O)[C@@H]1CSSC[C@H](NC(=O)[C@H](CCCNC(=N)N)NC(=O)CC[C@H](NC(=O)CCCCCCCCCCCCCCCCCCC(=O)O)C(=O)O)C(=O)N[C@@H](CCC(N)=O)C(=O)N[C@@H]([C@@H](C)O)C(=O)N[C@@H](C)C(=O)N[C@@H]([C@@H](C)O)C(=O)N1)[C@@H](C)O) [[19CD]-isoGlu-R-C( )-QTAT-C( )-ATERLAHFLQRSSF-Gly(Me)-A-Ile(Me)-LSSTEVGSNT-Hyp-NH2 (Compd. 57)]	0.11	0.11
{C20 diacid}-[γGlu]RCQTATCATDRLA[Aad]FLQRSSF[Sar]A[NMeI]LSSTEVGSNT[Hyp]-NH2 (disulfide 3-8; SMILES CC[C@H](C)[C@@H](C(=O)N[C@@H](CC(C)C)C(=O)N[C@@H](CO)C(=O)N[C@@H](CO)C(=O)N[C@H](C(=O)N[C@@H](CCC(=O)O)C(=O)N[C@H](C(=O)NCC(=O)N[C@@H](CO)C(=O)N[C@@H](CC(N)=O)C(=O)N[C@H](C(=O)N1C[C@H](O)C[C@H]1C(N)=O)[C@@H](C)O)C(C)C)[C@@H](C)O)N(C)C(=O)[C@H](C)NC(=O)CN(C)C(=O)[C@H](Cc1ccccc1)NC(=O)[C@H](CO)NC(=O)[C@H](CO)NC(=O)[C@H](CCCNC(=N)N)NC(=O)[C@H](CCC(N)=O)NC(=O)[C@H](CC(C)C)NC(=O)[C@H](Cc1ccccc1)NC(=O)[C@H](CCCC(=O)O)NC(=O)[C@H](C)NC(=O)[C@H](CC(C)C)NC(=O)[C@H](CCCNC(=N)N)NC(=O)[C@H](CC(=O)O)NC(=O)[C@@H](NC(=O)[C@H](C)NC(=O)[C@@H]1CSSC[C@H](NC(=O)[C@H](CCCNC(=N)N)NC(=O)CC[C@H](NC(=O)CCCCCCCCCCCCCCCCCCC(=O)O)C(=O)O)C(=O)N[C@@H](CCC(N)=O)C(=O)N[C@@H]([C@@H](C)O)C(=O)N[C@@H](C)C(=O)N[C@@H]([C@@H](C)O)C(=O)N1)[C@@H](C)O) [[19CD]-isoGlu-R-C( )-QTAT-C( )-ATDRLA-Aad-FLQRSSF-Gly(Me)-A-Ile(Me)-LSSTEVGSNT-Hyp-NH2 (Compd. 89)]	0.2	0.2
{C20 diacid-γGlu}-RCNTATCATQRLAEFLHHSSNNFGPILPPTNVGSNTP-NH2 (disulfide 2-7; SMILES CC[C@H](C)[C@H](NC(=O)[C@@H]1CCCN1C(=O)CNC(=O)[C@H](Cc1ccccc1)NC(=O)[C@H](CC(N)=O)NC(=O)[C@H](CC(N)=O)NC(=O)[C@H](CO)NC(=O)[C@H](CO)NC(=O)[C@H](Cc1c[nH]cn1)NC(=O)[C@H](Cc1c[nH]cn1)NC(=O)[C@H](CC(C)C)NC(=O)[C@H](Cc1ccccc1)NC(=O)[C@H](CCC(=O)O)NC(=O)[C@H](C)NC(=O)[C@H](CC(C)C)NC(=O)[C@H](CCCNC(=N)N)NC(=O)[C@H](CCC(N)=O)NC(=O)[C@@H](NC(=O)[C@H](C)NC(=O)[C@@H]1CSSC[C@H](NC(=O)[C@H](CCCNC(=N)N)NC(=O)CC[C@H](NC(=O)CCCCCCCCCCCCCCCCCCC(=O)O)C(=O)O)C(=O)N[C@@H](CC(N)=O)C(=O)N[C@@H]([C@@H](C)O)C(=O)N[C@@H](C)C(=O)N[C@@H]([C@@H](C)O)C(=O)N1)[C@@H](C)O)C(=O)N[C@@H](CC(C)C)C(=O)N1CCC[C@H]1C(=O)N1CCC[C@H]1C(=O)N[C@H](C(=O)N[C@@H](CC(N)=O)C(=O)N[C@H](C(=O)NCC(=O)N[C@@H](CO)C(=O)N[C@@H](CC(N)=O)C(=O)N[C@H](C(=O)N1CCC[C@H]1C(N)=O)[C@@H](C)O)C(C)C)[C@@H](C)O)	0.15	0.15
{C20 diacid-γGlu}-RCQTATCATERLAHFLQRSSNNF[Sar]A[NMeI]LSSTEVGSNT[Hyp]-NH2 (disulfide 2-7; SMILES CC[C@H](C)[C@@H](C(=O)N[C@@H](CC(C)C)C(=O)N[C@@H](CO)C(=O)N[C@@H](CO)C(=O)N[C@H](C(=O)N[C@@H](CCC(=O)O)C(=O)N[C@H](C(=O)NCC(=O)N[C@@H](CO)C(=O)N[C@@H](CC(N)=O)C(=O)N[C@H](C(=O)N1C[C@H](O)C[C@H]1C(N)=O)[C@@H](C)O)C(C)C)[C@@H](C)O)N(C)C(=O)[C@H](C)NC(=O)CN(C)C(=O)[C@H](Cc1ccccc1)NC(=O)[C@H](CC(N)=O)NC(=O)[C@H](CC(N)=O)NC(=O)[C@H](CO)NC(=O)[C@H](CO)NC(=O)[C@H](CCCNC(=N)N)NC(=O)[C@H](CCC(N)=O)NC(=O)[C@H](CC(C)C)NC(=O)[C@H](Cc1ccccc1)NC(=O)[C@H](Cc1c[nH]cn1)NC(=O)[C@H](C)NC(=O)[C@H](CC(C)C)NC(=O)[C@H](CCCNC(=N)N)NC(=O)[C@H](CCC(=O)O)NC(=O)[C@@H](NC(=O)[C@H](C)NC(=O)[C@@H]1CSSC[C@H](NC(=O)[C@H](CCCNC(=N)N)NC(=O)CC[C@H](NC(=O)CCCCCCCCCCCCCCCCCCC(=O)O)C(=O)O)C(=O)N[C@@H](CCC(N)=O)C(=O)N[C@@H]([C@@H](C)O)C(=O)N[C@@H](C)C(=O)N[C@@H]([C@@H](C)O)C(=O)N1)[C@@H](C)O) [[19CD]-isoGlu-R-C( )-QTAT-C( )-ATERLAHFLQRSSNNF-Gly(Me)-A-Ile(Me)-LSSTEVGSNT-Hyp-NH2 (Compd. 99)]	–	0.59
{C20 diacid-γGlu}-RCNTATCATQRLADFLQRSSF[Sar]A[NMeI]LSSTEVGSNT[Hyp]-NH2 (disulfide 2-7; SMILES CC[C@H](C)[C@@H](C(=O)N[C@@H](CC(C)C)C(=O)N[C@@H](CO)C(=O)N[C@@H](CO)C(=O)N[C@H](C(=O)N[C@@H](CCC(=O)O)C(=O)N[C@H](C(=O)NCC(=O)N[C@@H](CO)C(=O)N[C@@H](CC(N)=O)C(=O)N[C@H](C(=O)N1C[C@H](O)C[C@H]1C(N)=O)[C@@H](C)O)C(C)C)[C@@H](C)O)N(C)C(=O)[C@H](C)NC(=O)CN(C)C(=O)[C@H](Cc1ccccc1)NC(=O)[C@H](CO)NC(=O)[C@H](CO)NC(=O)[C@H](CCCNC(=N)N)NC(=O)[C@H](CCC(N)=O)NC(=O)[C@H](CC(C)C)NC(=O)[C@H](Cc1ccccc1)NC(=O)[C@H](CC(=O)O)NC(=O)[C@H](C)NC(=O)[C@H](CC(C)C)NC(=O)[C@H](CCCNC(=N)N)NC(=O)[C@H](CCC(N)=O)NC(=O)[C@@H](NC(=O)[C@H](C)NC(=O)[C@@H]1CSSC[C@H](NC(=O)[C@H](CCCNC(=N)N)NC(=O)CC[C@H](NC(=O)CCCCCCCCCCCCCCCCCCC(=O)O)C(=O)O)C(=O)N[C@@H](CC(N)=O)C(=O)N[C@@H]([C@@H](C)O)C(=O)N[C@@H](C)C(=O)N[C@@H]([C@@H](C)O)C(=O)N1)[C@@H](C)O) [[19CD]-isoGlu-R-C( )-NTAT-C( )-ATQRLADFLQRSSF-Gly(Me)-A-Ile(Me)-LSSTEVGSNT-Hyp-NH2 (Compd. 49)]	0.15	–
